Positions count from the first letter of the chain named. Numbers in names are those of the source.

Substrate in data set [1]: CC(=O)N[C@H]1[C@H](O[C@@H]2[C@H](O[C@]3(C(=O)O)C[C@H](O)[C@@H](NC(C)=O)[C@H]([C@@H](O)[C@@H](O)CO)O3)[C@@H](O)[C@H](O[C@H]3[C@H](O)[C@@H](O)[C@@H](F)O[C@@H]3CO)O[C@@H]2CO)O[C@H](CO)[C@H](O)[C@@H]1O[C@@H]1O[C@H](CO)[C@H](O)[C@H](O)[C@H]1O
Kind of data set: (§1) Ratio of Kcat to Km of Activity of Rhodococcus sp. M777 Endoglycoceramidase 2 A153T D314Y mutant.

Substrate in data set [2]: CCCCCCCCCCCCC/C=C/[C@@H](O)[C@@H](N)CO
The description is as §1.

Substrate in data set [3]: CC(=O)N[C@H]1[C@H](O[C@@H]2[C@H](O[C@]3(C(=O)O)C[C@H](O)[C@@H](NC(C)=O)[C@H]([C@@H](O)[C@@H](O)CO)O3)[C@@H](O)[C@H](O[C@H]3[C@H](O)[C@@H](O)[C@@H](F)O[C@@H]3CO)O[C@@H]2CO)O[C@H](CO)[C@H](O)[C@@H]1O[C@@H]1O[C@H](CO)[C@H](O)[C@H](O)[C@H]1O
Kind of data set: (§2) Activity of Rhodococcus sp. M777 Endoglycoceramidase 2 A153T D314Y mutant.

Substrate in data set [4]: CCCCCCCCCCCCC/C=C/[C@@H](O)[C@@H](N)CO
The data set is described as §2.

Substrate in data set [5]: CC(=O)N[C@H]1[C@H](O[C@@H]2[C@H](O[C@]3(C(=O)O)C[C@H](O)[C@@H](NC(C)=O)[C@H]([C@@H](O)[C@@H](O)CO)O3)[C@@H](O)[C@H](O[C@H]3[C@H](O)[C@@H](O)[C@@H](F)O[C@@H]3CO)O[C@@H]2CO)O[C@H](CO)[C@H](O)[C@@H]1O[C@@H]1O[C@H](CO)[C@H](O)[C@H](O)[C@H]1O
Kind of data set: (§3) Activity of Rhodococcus sp. M777 Endoglycoceramidase 2 I276F mutant.

Substrate in data set [6]: CCCCCCCCCCCCC/C=C/[C@@H](O)[C@@H](N)CO
The data set is described as §3.

Substrate in data set [7]: CC(=O)N[C@H]1[C@H](O[C@@H]2[C@H](O[C@]3(C(=O)O)C[C@H](O)[C@@H](NC(C)=O)[C@H]([C@@H](O)[C@@H](O)CO)O3)[C@@H](O)[C@H](O[C@H]3[C@H](O)[C@@H](O)[C@@H](F)O[C@@H]3CO)O[C@@H]2CO)O[C@H](CO)[C@H](O)[C@@H]1O[C@@H]1O[C@H](CO)[C@H](O)[C@H](O)[C@H]1O
Kind of data set: (§4) Ratio of Kcat to Km of Activity of Rhodococcus sp. M777 Endoglycoceramidase 2 I276F mutant.

Substrate in data set [8]: CCCCCCCCCCCCC/C=C/[C@@H](O)[C@@H](N)CO
The data set is described as §4.

Substrate in data set [9]: CC(=O)N[C@H]1[C@H](O[C@@H]2[C@H](O[C@]3(C(=O)O)C[C@H](O)[C@@H](NC(C)=O)[C@H]([C@@H](O)[C@@H](O)CO)O3)[C@@H](O)[C@H](O[C@H]3[C@H](O)[C@@H](O)[C@@H](F)O[C@@H]3CO)O[C@@H]2CO)O[C@H](CO)[C@H](O)[C@@H]1O[C@@H]1O[C@H](CO)[C@H](O)[C@H](O)[C@H]1O
As to the kind of experiment: (§5) Activity of Rhodococcus sp. M777 Endoglycoceramidase 2 T257I T416A mutant.

Substrate in data set [10]: CCCCCCCCCCCCC/C=C/[C@@H](O)[C@@H](N)CO
The data set is described as §5.

Substrate in data set [11]: CC(=O)N[C@H]1[C@H](O[C@@H]2[C@H](O[C@]3(C(=O)O)C[C@H](O)[C@@H](NC(C)=O)[C@H]([C@@H](O)[C@@H](O)CO)O3)[C@@H](O)[C@H](O[C@H]3[C@H](O)[C@@H](O)[C@@H](F)O[C@@H]3CO)O[C@@H]2CO)O[C@H](CO)[C@H](O)[C@@H]1O[C@@H]1O[C@H](CO)[C@H](O)[C@H](O)[C@H]1O
As to the kind of experiment: (§6) Ratio of Kcat to Km of Activity of Rhodococcus sp. M777 Endoglycoceramidase 2 T257I T416A mutant.

Substrate in data set [12]: CCCCCCCCCCCCC/C=C/[C@@H](O)[C@@H](N)CO
The description is as §6.

Substrate in data set [13]: CC(=O)N[C@H]1[C@H](O[C@@H]2[C@H](O[C@]3(C(=O)O)C[C@H](O)[C@@H](NC(C)=O)[C@H]([C@@H](O)[C@@H](O)CO)O3)[C@@H](O)[C@H](O[C@H]3[C@H](O)[C@@H](O)[C@@H](F)O[C@@H]3CO)O[C@@H]2CO)O[C@H](CO)[C@H](O)[C@@H]1O[C@@H]1O[C@H](CO)[C@H](O)[C@H](O)[C@H]1O
Kind of data set: (§7) Ratio of Kcat to Km of Activity of Rhodococcus sp. M777 Endoglycoceramidase 2 A153T D314Y R177H mutant.

Substrate in data set [14]: CCCCCCCCCCCCC/C=C/[C@@H](O)[C@@H](N)CO
Described as §7.

Substrate in data set [15]: CC(=O)N[C@H]1[C@H](O[C@@H]2[C@H](O[C@]3(C(=O)O)C[C@H](O)[C@@H](NC(C)=O)[C@H]([C@@H](O)[C@@H](O)CO)O3)[C@@H](O)[C@H](O[C@H]3[C@H](O)[C@@H](O)[C@@H](F)O[C@@H]3CO)O[C@@H]2CO)O[C@H](CO)[C@H](O)[C@@H]1O[C@@H]1O[C@H](CO)[C@H](O)[C@H](O)[C@H]1O
As to the kind of experiment: (§8) Activity of Rhodococcus sp. M777 Endoglycoceramidase 2 A153T D314Y R177H mutant.

Substrate in data set [16]: CCCCCCCCCCCCC/C=C/[C@@H](O)[C@@H](N)CO
The data set is described as §8.

Substrate in data set [17]: CC(=O)N[C@H]1[C@H](O[C@@H]2[C@H](O[C@]3(C(=O)O)C[C@H](O)[C@@H](NC(C)=O)[C@H]([C@@H](O)[C@@H](O)CO)O3)[C@@H](O)[C@H](O[C@H]3[C@H](O)[C@@H](O)[C@@H](F)O[C@@H]3CO)O[C@@H]2CO)O[C@H](CO)[C@H](O)[C@@H]1O[C@@H]1O[C@H](CO)[C@H](O)[C@H](O)[C@H]1O
Kind of data set: (§9) Activity of Rhodococcus sp. M777 Endoglycoceramidase 2 R177H mutant.

Substrate in data set [18]: CCCCCCCCCCCCC/C=C/[C@@H](O)[C@@H](N)CO
Described as §9.

Substrate in data set [19]: CC(=O)N[C@H]1[C@H](O[C@@H]2[C@H](O[C@]3(C(=O)O)C[C@H](O)[C@@H](NC(C)=O)[C@H]([C@@H](O)[C@@H](O)CO)O3)[C@@H](O)[C@H](O[C@H]3[C@H](O)[C@@H](O)[C@@H](F)O[C@@H]3CO)O[C@@H]2CO)O[C@H](CO)[C@H](O)[C@@H]1O[C@@H]1O[C@H](CO)[C@H](O)[C@H](O)[C@H]1O
As to the kind of experiment: (§10) Ratio of Kcat to Km of Activity of Rhodococcus sp. M777 Endoglycoceramidase 2 R177H mutant.

Substrate in data set [20]: CCCCCCCCCCCCC/C=C/[C@@H](O)[C@@H](N)CO
The description is as §10.

B1: Endoglycoceramidase II (Rhodococcus sp), A0ACD6B832 A153T,D314Y (protein)
chain: MRRTRLVSLIVTGSLVFGGGVAAAQSSLAASGSGSGSGTALTPSYLKDDDGRSLILRGFNTASSAKSAPDGMPQFTEADLAREYADMGTNFVRFLISWRSVEPAPGVYDQQYLDRVEDRVGWYAERGYKVMLDMHQDVYSGAITPEGNSGNGTGAIGNGAPAWATYMDGLPVEPQPRWELYYIQPGVMRAFDNFWNTTGKHPELVEHYAKAWRAVADRFADNDAVVAYDLMNEPFGGSLQGPAFEAGPLAAMYQRTTDAIRQVDQDTWVCVAPQAIGVNQGLPSGLTKIDDPRAGQQRIAYCPHLYPLPLDIGYGHEGLARTLTDVTIDAWRANTAHTARVLGDVPIILGEFGLDTTLPGARDYIERVYGTAREMGAGVSYWSSDPGPWGPYLPDGTQTLLVDTLNKPYPRAVAGTPTEWSSTSDRLQLTIEPDAAITAPTEIYLPEAGFPGDVHVEGADVVGWDRQSRLLTVRTPADSGNVTVTVTPAA
Take B1: the figures for the kcat/Km in data set [1] and in data set [2] were 1110 M⁻¹ s⁻¹ and 407 M⁻¹ s⁻¹, respectively. In addition, the Km came out at 270 µM in data set [3] and 1600 µM in data set [4]. Further, the kcat stood at 0.3 s⁻¹ in data set [3] and 0.64 s⁻¹ in [4].

B2: Endoglycoceramidase II (Rhodococcus sp), A0ACD6B832 I276F (protein)
chain: B1 chain with T153A, I276F, Y314D
With B2, the Km in data set [5] amounted to 1300 µM; in data set [6], 130 µM. The kcat in data set [5] and in data set [6] was 0.11 s⁻¹ each time. For the same protein, the kcat/Km in [7] was 86 M⁻¹ s⁻¹; in data set [8] it was 846 M⁻¹ s⁻¹.

B3: Endoglycoceramidase II (Rhodococcus sp), A0ACD6B832 T257I,T416A (protein)
chain: B1 chain with T153A, T257I, Y314D, T416A
In the case of B3, the Km worked out at 370 µM in data set [9] and 870 µM in data set [10]. Also, the kcat is 0.11 s⁻¹ in [9] and 0.18 s⁻¹ in data set [10]. Further, the results for the catalytic efficiency (kcat/Km) in [11] and in data set [12] were 297 M⁻¹ s⁻¹ and 206 M⁻¹ s⁻¹, respectively.

B4: Endoglycoceramidase II (Rhodococcus sp), A0ACD6B832 A153T,D314Y,R177H (protein)
chain: B1 chain with R177H
As for B4, the kcat/Km turned out to be 350 M⁻¹ s⁻¹ in [13] and 490 M⁻¹ s⁻¹ in data set [14]. Besides, the Km came to 800 µM in data set [15] and 490 µM in data set [16]. The kcat is 0.28 s⁻¹ in data set [15] and 0.24 s⁻¹ in data set [16].

B5: Endoglycoceramidase II (Rhodococcus sp), A0ACD6B832 R177H (protein)
chain: B1 chain with T153A, R177H, Y314D
Regarding B5, the Km in data set [17] is 320 µM; in data set [18], 170 µM. Also, the kcat in [17] and in data set [18] was 0.06 s⁻¹ each time. In addition, the kcat/Km is 188 M⁻¹ s⁻¹ in [19] and 353 M⁻¹ s⁻¹ in data set [20].
